Experimental data taken from patent publication US20210324080A1 (JIANGSU HUAIYU PHARMACEUTICAL, published 2021).

T1: CTLA-4-hFc (immunogen A; hFc-labeled CTLA-4 extracellular domain protein) (human, UniProt P16410 36-161)
T1 construct: range 36-161; Made in HEK293 cells, purified on protein A; also called CLTA-4-hFc; CTLA-4 protein; not shown: human IgG Fc fragment (hFc) of the pCpC vector
T1 sequence (looked up): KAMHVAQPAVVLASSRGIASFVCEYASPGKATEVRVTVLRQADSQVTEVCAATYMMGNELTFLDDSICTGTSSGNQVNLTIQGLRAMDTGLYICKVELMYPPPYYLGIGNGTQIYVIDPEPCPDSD

T2: human CTLA-4 (Y201V), full length, on transfected cells (human, UniProt P16410 36-223)
T2 construct: whole, on cells; also called hCTLA-4; HEK293-hCTLA-4 (Y201V)
T2 sequence (looked up): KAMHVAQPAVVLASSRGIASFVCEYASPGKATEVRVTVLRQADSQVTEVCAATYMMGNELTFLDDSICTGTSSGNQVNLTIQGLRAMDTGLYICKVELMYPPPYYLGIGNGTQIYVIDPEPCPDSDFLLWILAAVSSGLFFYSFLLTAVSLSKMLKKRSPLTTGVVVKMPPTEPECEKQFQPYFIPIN

T3: CTLA-4 on human T lymphocytes (PBMC, CD3+ T cells) (human, UniProt P16410 36-223)
T3 sequence (looked up): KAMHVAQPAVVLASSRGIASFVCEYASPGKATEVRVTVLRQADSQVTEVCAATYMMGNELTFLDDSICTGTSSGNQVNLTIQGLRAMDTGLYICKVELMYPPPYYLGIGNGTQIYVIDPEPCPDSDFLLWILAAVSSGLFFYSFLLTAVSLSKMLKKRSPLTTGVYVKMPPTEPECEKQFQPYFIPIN


What was measured:
[1] = molecular target: T1, CTLA-4-hFc (immunogen A; hFc-labeled …); experiment: competition ELISA: CTLA-4-hFc coated, antibody titrated, blocked ligand biotin-labeled B7.2-hFc, HRP-avidin, A450, inhibition (%)
Protocol: (§1) CTLA-4 extracellular domain protein (CTLA-4-hFc) was diluted with PBS to a final concentration of 1.0 μg/mL, and then added to a 96-well ELISA plate as 100 μl per well. The plate was covered with a plastic film and incubated overnight at 4° C. The plate was washed twice with plate washing solution [PBS containing 0.01% (v/v) Tween 20] on the next day, and added with blocking solution [PBS containing 0.01% (v/v) Tween 20 and 1% (w/w) BSA] and blocked at room temperature for 2 hours. […] After 2 hours, the plate was washed 3 times with a plate washing solution [PBS containing 0.01% (v/v) Tween 20]. HRP (horseradish peroxidase) labeled avidin diluent (purchased from Sigma) was added 100 microliters per well, and after the plate was incubated for 2 hours at 37° C., it was washed with plate washing solution [PBS containing 0.01% (v/v) Tween 20] for 3 times. […] TMB substrate was added to each well. After incubated at room temperature for 30 minutes, the plate was added with […] stop solution (1.0N HCl) to each well. An ELISA plate reader (SpectraMax 384plus, Molecular Device) was used to read the A450 nm value.

[2] = molecular target: T2, human CTLA-4 (Y201V), full length, on …; experiment: FACS, CHOK1-hCTLA-4 cells
[3] = molecular target: T1, CTLA-4-hFc (immunogen A; hFc-labeled …); experiment: ELISA, coated CTLA-4-hFc, competitor biotin-B7.1-hFc
Protocol: as §1

[4] = molecular target: T1, CTLA-4-hFc (immunogen A; hFc-labeled …); experiment: ELISA, coated CTLA-4-hFc, competitor biotin-B7.2-hFc
Protocol: as §1

[5] = molecular target: T4, monkey CTLA-4, full length, on transfected HEK293 cells (monkey); experiment: FACS, 293F-cCTLA-4 cells
T4 construct: whole, on cells; also called cCTLA-4; HEK293-cCTLA-4
Excerpt: The pIRES plasmid with the monkey-derived CTLA-4 full-length gene was transfected into the HEK293 cell line to construct a HEK293 stable cell line containing monkey CTLA-4 (herein referred to as HEK293-cCTLA-4 stable cell line), wherein the database accession number of the monkey CTLA-4 nucleotide sequence is XM_005574014.1. The HEK293-hCTLA-4 stable cell line and HEK293-cCTLA-4 stable cell line were expanded in a T-75 cell culture flask to a 90% confluence. The medium was aspirated, and the cells were washed with HBSS buffer (Hanks Balanced Salt Solution, purchased from Invitrogen) twice, then treated with an enzyme-free cell dissociation fluid (Versene solution, purchased from Life technology) and the cells were collected. The cells were washed with HBSS buffer twice. After counted, the cells were diluted with HBSS buffer to 2×10⁶ cells per ml, added with 1% goat serum blocking solution, wherein the percentage was the mass percantage. Cells were incubated on ice for 30 minutes, then washed twice with HBSS buffer by centrifugation. The collected cells were suspended in the FACS buffer (HBSS containing 1% BSA, wherein the percentage was the mass percantage) to 2×10⁶ cells/ml, added as 100 microliters per well to a 96-well FACS reaction plate, added with 100 microliters per well of the purified CTLA-4 antibody sample to be tested, incubated on ice for 2 hours. The plate was washed twice with the FACS buffer by centrifugation, added with 100 microliters of fluorescent (Alexa 488)-labeled secondary antibodies (purchased from Invitrogen) per well, and incubated on ice for 1 hour. The plate was washed 3 times with FACS buffer by centrifugation, added with 100 μl fixative solution [4% (v/v) Paraformaldehyde] per well to suspend the cells. 10 minutes later, it was washed 2 times with FACS buffer by centrifugation. The cells were suspended with 100 microliters of FACS buffer, FACS (FACS Calibur, purchased from BD) was used for detection and the results were analyzed.

[6] = molecular target: T1, CTLA-4-hFc (immunogen A; hFc-labeled …); experiment: competition ELISA: CTLA-4-hFc coated, antibody titrated, blocked ligand biotin-labeled B7.1-hFc, HRP-avidin, A450, inhibition (%)
Protocol: as §1

[7] = molecular target: T3, CTLA-4 on human T lymphocytes (PBMC, …); experiment: cell-based or functional assay

Binder | IC50 (read off the curve) [1] | MFI at 0.07 nM [2] | MFI at 0.67 nM [2] | MFI at 6.67 nM [2] | MFI at 66.67 nM [2] | Inhibition rate (%) at 0.00091 nM [3] | Inhibition rate (%) at 0.091 nM [3] | Inhibition rate (%) at 0.274 nM [3] | Inhibition rate (%) at 0.823 nM [3] | Inhibition rate (%) at 2.5 nM [3] | Inhibition rate (%) at 7.4 nM [3] | Inhibition rate (%) at 22.2 nM [3] | Inhibition rate (%) at 66.7 nM [3] | Inhibition rate (%) at 0.00091 nM [4] | Inhibition rate (%) at 0.091 nM [4] | Inhibition rate (%) at 0.274 nM [4] | Inhibition rate (%) at 0.823 nM [4] | Inhibition rate (%) at 2.5 nM [4] | Inhibition rate (%) at 7.4 nM [4] | Inhibition rate (%) at 22.2 nM [4] | also measured
97A8D1 (chimeric antibody purified from hybridoma supernatant) (antibody, V domains shown, also called mAb49; mAb049) VH: QVQLVESGGGVVQPGRSLRLSCVASGFTFNNYGMNWVRQAPGKGLEWVAVIWYGGRNKFYADSVKGRFTISRDNSKNTLYLEMNSLRAEDTAVYYCARADWGGWFDPWGQGTLVTVSS VL: EIVLTQSPGTLSLSPGERATLSCRASQSVSSTYLAWYQQKPGQAPRLLIHGAFSRATGIPDRFSGSGSGPDFTLTISRLEPEDFAVYYCQQYGTSPFTFGPGTKVDIK | ~0.5 nM | 20 | 116 | 395 | 617 | 0% | -1% | 4% | 78% | 93% | 91% | 91% | 97% | 0% | -21% | 6% | 76% | 91% | 95% | 94% | Inhibition rate (%) at 66.7 nM [4]: 95%; MFI at 0.000128 nM [5]: 2.4; MFI at 0.0128 nM [5]: 23.1; MFI at 0.064 nM [5]: 67.2; MFI at 0.32 nM [5]: 225; MFI at 1.6 nM [5]: 513; MFI at 8 nM [5]: 754; MFI at 40 nM [5]: 910; MFI at 200 nM [5]: 831; IC50 (read off the curve) [6]: ~0.5 nM; IL-2 (pg/mL) at 0.016 ug/mL, SEB PBMC test [7]: 336 pg/mL; IL-2 (pg/mL) at 0.08 ug/mL, SEB PBMC test [7]: 742 pg/mL; IL-2 (pg/mL) at 2 ug/mL, SEB PBMC test [7]: 4950 pg/mL; IL-2 (pg/mL) at 4 ug/mL (so in the source), SEB PBMC test [7]: 1520 pg/mL; IL-2 (pg/mL) at 10 ug/mL, SEB PBMC test [7]: 7980 pg/mL
92C8B6 (chimeric antibody purified from hybridoma supernatant) (antibody, V domains shown, also called mAb42; mAb042) VH: QVQLVESGGGVVQPGRSLRLSCAASGFTFSNFGMHWVRQAPGKGLEWVAVIWYDGSNKYYADSVKGRFTISRDNSKNTLFLQMNGLRAEDTAVYYCAKGGILMAGTLDYWGQGTLVTVSS VL: DIQMTQSPSSLSASVGDRVTITCRASQSVSTYLNWYQQKPGKAPKLLIYAASSFQSGVPSRFSGSGSGTDFTLTISSLQPEDFATYFCQQSYSTPFTFGPGTKVDIK | ~0.2 nM | 29 | 154 | 420 | 603 | 0% | 8% | 55% | 93% | 94% | 97% | 96% | 97% | 0% | 23% | 60% | 90% | 92% | 95% | 94% | Inhibition rate (%) at 66.7 nM [4]: 95%; MFI at 0.000128 nM [5]: 2.3; MFI at 0.0128 nM [5]: 22.2; MFI at 0.064 nM [5]: 67.7; MFI at 0.32 nM [5]: 208; MFI at 1.6 nM [5]: 465; MFI at 8 nM [5]: 722; MFI at 40 nM [5]: 800; MFI at 200 nM [5]: 711; IC50 (read off the curve) [6]: ~0.2 nM; IL-2 (pg/mL) at 0.016 ug/mL, SEB PBMC test [7]: 355 pg/mL; IL-2 (pg/mL) at 0.08 ug/mL, SEB PBMC test [7]: 830 pg/mL; IL-2 (pg/mL) at 2 ug/mL, SEB PBMC test [7]: 3740 pg/mL; IL-2 (pg/mL) at 4 ug/mL (so in the source), SEB PBMC test [7]: 1420 pg/mL; IL-2 (pg/mL) at 10 ug/mL, SEB PBMC test [7]: 6120 pg/mL
97B8E1 (chimeric antibody purified from hybridoma supernatant) (antibody, V domains shown, also called mAb50; mAb050) VH: QVQLVESGGGVVQPGRSLRLSCAASGFTFSSYVMHWVRQAPGKGLEWVAVIWSDGRNKYYTDSVKGRFTISRDNSKNTLYLQMSSLRAEDTAVYYCARSGIALAGNAFDIWGQGTMVTVSS VL: not shown | ~0.6 nM | 22 | 125 | 347 | 606 | 0% | -2% | 4% | 75% | 87% | 89% | 89% | 96% | 0% | -29% | 2% | 62% | 78% | 89% | 91% | Inhibition rate (%) at 66.7 nM [4]: 93%; MFI at 0.000128 nM [5]: 2.3; MFI at 0.0128 nM [5]: 35.7; MFI at 0.064 nM [5]: 96.8; MFI at 0.32 nM [5]: 270; MFI at 1.6 nM [5]: 504; MFI at 8 nM [5]: 757; MFI at 40 nM [5]: 810; MFI at 200 nM [5]: 784; IC50 (read off the curve) [6]: ~0.5 nM; IL-2 (pg/mL) at 0.016 ug/mL, SEB PBMC test [7]: 446 pg/mL; IL-2 (pg/mL) at 0.08 ug/mL, SEB PBMC test [7]: 824 pg/mL; IL-2 (pg/mL) at 2 ug/mL, SEB PBMC test [7]: 4450 pg/mL; IL-2 (pg/mL) at 4 ug/mL (so in the source), SEB PBMC test [7]: 1950 pg/mL; IL-2 (pg/mL) at 10 ug/mL, SEB PBMC test [7]: 7910 pg/mL
